According to patent publication US5609876, “Peptide vaccines and associated methods for protection against feline leukemia virus” (University of Pittsburgh of the Commonwealth System of …, dated 1997):
No end group written: not given here.

Molecular target: T1, PRN4358 (feline leukemia virus (FeLV 61-E gp70))
T1 peptide: VAPTTVGPKRIGTGDR-NH2
Experiment: 1H-NMR of an equimolar (5 mM) mixture of PRN42 and PRN4358, amide proton protection in D2O

## TPPQAMGPNLVLPDQKPPSRQSQTGSKVATQRPQTNESAPRS-NH2 [PRN42]
  binding result: binds
